{"source": "paper PMC6596341", "target": "Aβ42 (human) (UniProt P05067)", "sequence (P05067 672-713)": "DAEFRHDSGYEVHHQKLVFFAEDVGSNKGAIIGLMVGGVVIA"}
{"binder": "S100B (natural protein) MSELEKAMVALIDVFHQYSGREGDKHKLKKSELKELINNELSHFLEEIKEQEVVDKVMETLDNDGDGECDFQEFMAFVAMVTTACHEFFEHE", "values": [{"measurement": "reaction half time (t1/2) of ThT-monitored fibril formation of 5 μM monomeric Aβ42 in the presence of 15 μM S100B, 50 mM Hepes pH 7.4, 1.1 mM CaCl2, 37°C, quiescent (Aβ42 alone t1/2 = 0.8 h)", "result": 2.2, "unit": "h"}]}
